B1: neutralizing antibody 7F3 (antibody, V domains shown)
VH: EVQLVESGGGLVKPGRSLRLSCTASGFTFGDYAMSWFRQAPGKGLEWVGFIRSKAYGGTTEYAASVKGRFTISRDDSKSIAYLQMNSLKTEDTAVYYCTRDRYARYDILTGLSPAGADYFYYAMDVWGQGTTVTVSS
VL: EIVLTQSPATLSLSPGERATLSCRASQSVSSYLAWYQQKPGQAPRLLIYDASNRATGIPARFSGSGSGTDFTLTISSLEPEDFAVYYCQQRSNWPQYTFGQGTKLEIK
B2: 7F3 neutralizing antibody (IgG) (antibody, V domains shown)
VH: EVQLVESGGGLVKPGRSLRLSCTASGFTFGDYAMSWFRQAPGKGLEWVGFIRSKAYGGTTEYAASVKGRFTISRDDSKSIAYLQMNSLKTEDTAVYYCTRDRYARYDILTGLSPAGADYFYYAMDVWGQGTTVTVSS
VL: EIVLTQSPATLSLSPGERATLSCRASQSVSSYLAWYQQKPGQAPRLLIYDASNRATGIPARFSGSGSGTDFTLTISSLEPEDFAVYYCQQRSNWPQYTFGQGTKLEIK
B3: LY-CoV1404 (also known as bebtelovimab) (antibody, V domains shown)
VH: QITLKESGPTLVKPTQTLTLTCTFSGFSLSISGVGVGWLRQPPGKALEWLALIYWDDDKRYSPSLKSRLTISKDTSKNQVVLKMTNIDPVDTATYYCAHHSISTIFDHWGQGTLVTVSS
VL: QSALTQPASVSGSPGQSITISCTATSSDVGDYNYVSWYQQHPGKAPKLMIFEVSDRPSGISNRFSGSKSGNTASLTISGLQAEDEADYYCSSYTTSSAVFGGGTKLTVL
notes: control antibody
B4: LY-CoV1404 (bebtelovimab) (antibody, V domains shown)
VH: QITLKESGPTLVKPTQTLTLTCTFSGFSLSISGVGVGWLRQPPGKALEWLALIYWDDDKRYSPSLKSRLTISKDTSKNQVVLKMTNIDPVDTATYYCAHHSISTIFDHWGQGTLVTVSS
VL: QSALTQPASVSGSPGQSITISCTATSSDVGDYNYVSWYQQHPGKAPKLMIFEVSDRPSGISNRFSGSKSGNTASLTISGLQAEDEADYYCSSYTTSSAVFGGGTKLTVL

Legend:
Test in all cases: BLI
Settings in all cases: both partners purified
[1] = target: T1, SARS-CoV-2 Omicron XBB.1.16 RBD, His-tagged (SARS-CoV-2 Omicron XBB.1.16, R346T | L368I | V445P | T478R | F486P | F490S)
T1 construct: not shown: 8xHis, C-terminal, kept

[2] = target: T2, SARS-CoV-2 Omicron XBB RBD, His-tagged (SARS-CoV-2 Omicron XBB, R346T | L368I | V445P | F486S | F490S)
T2 construct: not shown: 8xHis, C-terminal, kept

[3] = target: T3, SARS-CoV-2 Omicron BF.7 RBD, His-tagged (SARS-CoV-2 Omicron BF.7, R346T)
T3 construct: not shown: 8xHis, C-terminal, kept

[4] = target: T4, SARS-CoV-2 Delta RBD, His-tagged (SARS-CoV-2 Delta (B.1.617.2), strain)
T4 construct: not shown: 8xHis, C-terminal, kept

[5] = target: T5, SARS-CoV-2 Omicron XBB.1.16 spike RBD-His (SARS-CoV-2 Omicron XBB.1.16, R346T | L368I | V445P | F486P | F490S | T478R)
T5 construct: not shown: His8, C-terminal, kept

[6] = target: T6, SARS-CoV-2 Omicron XBB spike RBD-His (SARS-CoV-2 Omicron XBB, strain)
T6 construct: not shown: His8, C-terminal, kept

[7] = target: T7, SARS-CoV-2 Delta spike RBD-His (SARS-CoV-2 Delta (B.1.617.2), strain)
T7 construct: not shown: His8, C-terminal, kept

[8] = target: T8, SARS-CoV-2 Omicron BF.7 spike RBD-His (SARS-CoV-2 Omicron BF.7, strain)
T8 construct: not shown: His8, C-terminal, kept

[9] = target: T9, SARS-CoV-2 Omicron BA.5 RBD, His-tagged (SARS-CoV-2 Omicron BA.5, strain)
T9 construct: not shown: 8xHis, C-terminal, kept

[10] = target: T10, SARS-CoV-2 Omicron BA.1 RBD, His-tagged (SARS-CoV-2 Omicron BA.1, strain)
T10 construct: not shown: 8xHis, C-terminal, kept

[11] = target: T11, SARS-CoV-2 Omicron BA.1 spike RBD-His (SARS-CoV-2 Omicron BA.1, strain)
T11 construct: not shown: His8, C-terminal, kept

[12] = target: T12, SARS-CoV-2 Omicron BA.5 spike RBD-His (SARS-CoV-2 Omicron BA.5, strain)
T12 construct: not shown: His8, C-terminal, kept

Binder | Kd [3] | koff [3] | kon [3] | Kd [4] | koff [4] | kon [4] | Kd [7] | koff [7] | kon [7] | Kd [8] | koff [8] | kon [8] | also measured
B1 | 1280 nM | 0.0412 s⁻¹ | 32100 M⁻¹ s⁻¹ | 20.8 nM | 0.000914 s⁻¹ | 44000 M⁻¹ s⁻¹ |  |  |  |  |  |  | Kd [1]: 28.6 nM; koff [1]: 0.0048 s⁻¹; kon [1]: 168000 M⁻¹ s⁻¹; Kd [2]: 19.9 nM; koff [2]: 0.00113 s⁻¹; kon [2]: 56600 M⁻¹ s⁻¹
B2 |  |  |  |  |  |  | 20.8 nM | 0.000914 s⁻¹ | 44000 M⁻¹ s⁻¹ | 1280 nM | 0.0412 s⁻¹ | 32100 M⁻¹ s⁻¹ | Kd [5]: 28.6 nM; koff [5]: 0.0048 s⁻¹; kon [5]: 168000 M⁻¹ s⁻¹; Kd [6]: 19.9 nM; koff [6]: 0.00112 s⁻¹; kon [6]: 56600 M⁻¹ s⁻¹
B3 | < 0.001 nM | < 1e-07 s⁻¹ | 46800 M⁻¹ s⁻¹ | < 0.001 nM | < 1e-07 s⁻¹ | 244000 M⁻¹ s⁻¹ |  |  |  |  |  |  | Kd [9]: < 0.001 nM; koff [9]: < 1e-07 s⁻¹; kon [9]: 40500 M⁻¹ s⁻¹; Kd [10]: < 0.001 nM; koff [10]: < 1e-07 s⁻¹; kon [10]: 32200 M⁻¹ s⁻¹
B4 |  |  |  |  |  |  | < 0.001 nM | < 1e-07 s⁻¹ | 244000 M⁻¹ s⁻¹ | < 0.001 nM | < 1e-07 s⁻¹ | 46800 M⁻¹ s⁻¹ | Kd [11]: < 0.001 nM; koff [11]: < 1e-07 s⁻¹; kon [11]: 32200 M⁻¹ s⁻¹; Kd [12]: < 0.001 nM; koff [12]: < 1e-07 s⁻¹; kon [12]: 40400 M⁻¹ s⁻¹

Reference: paper PMC11180174 (Nature Communications, 2024)
